# Assay results as given in US8846861B2, “Peptide clearing agents” (Mologic Ltd, priority 2009, dated 2014).
# B1: CPG2 control: carboxypeptidase G2 conjugated to phycoerythrin, control without anti-CEA part (protein)
# chain: ALAQKRDNVLFQAATDEQPAVIKTLEKLVNIETGTGDAEGIAAAGNFLEAELKNLGFTVTRSKSAGLVVGDNIVGKIKGRGGKNLLLMSHMDTVYLKGILAKAPFRVEGDKAYGPGIADDKGGNAVILHTLKLLKEYGVRDYGTITVLFNTDEEKGSFGSRDLIQEEAKLADYVLSFEPTSAGDEKLSLGTSGIAYVQVNITGKASHAGAAPELGVNALVEASDLVLRTMNIDDKAKNLRFNWTIAKAGNVSNIIPASATLNADVRYARNEDFDAAMKTLEERAQQKKLPEADVKVIVTRGRPAFNAGEGGKKLVDKAVAYYKEAGGTLGVEERTGGGTDAAYAALSGKPVIESLGLPGFGYHSDKAEYVDISAIPRRLYMAARLIMDLGAGK
# Test system: CCL 229 (LoVo) CEA expressing cell line
# Assay: Flow cytometry cell binding, CEA expressing cell line
# Type: cell-based
# Details: CCL 229, PE label, 1 hour at 4° C.
# Procedure: Measurement by Flow Cytometry of Binding Capability of scFv Anti-CEA-CPG2 Using CEA Expressing Cells.
# CRL 1573—control cell line, CCL 229 (LoVo)—CEA expressing cell line
# Cultured cells were both used at 2×10^5 cells per tube, cells in tubes were prepared to contain the following
# Cells were spun down and 100 μl of antibody solution was added to respective tube. 100 μl buffer was added to tubes 1 and 2 and left in fridge until later.
# Tubes were incubated in the dark at 4° C. for 1 hour, add 1 ml PBSAB and spun as above. Include tube 1 in this wash. The supernatant was removed and 100 μl conjugate was added to tube 6 for a further incubation of 1 hr in the dark at 4° C.
# Added 150 μl 0.5% formaldehyde to tubes 1, 3, 4 and 5, stored in the fridge until measured (˜2 hours). Washed tube 6 as before and add formaldehyde to this tube. 30 minutes before measuring add 100 μl Propidium Iodine to tube 2, before measuring, added 1 ml of PBS to all samples.
molecule,measurement,value
B1,binding to cells by flow cytometry (in words),does not bind
